Measurements reported in US20250276075A1, “METHODS OF TREATING AXL-EXPRESSING CANCERS WITH ANTI-AXL ANTIBODIES, ANTIBODY FRAGMENTS AND THEIR IMMUNOCONJUGATES” (BIOATLA, INC., priority 2020, published 2025).
Entries after “also recorded” stand apart in the source; their conditions may differ.

How the values were obtained:
rat Axl = biological target: T1, rat Axl (Rattus norvegicus, UniProt A0A0G2K2H0); test: BA3011 binding to rat Axl
T1 sequence (A0A0G2K2H0 21-879): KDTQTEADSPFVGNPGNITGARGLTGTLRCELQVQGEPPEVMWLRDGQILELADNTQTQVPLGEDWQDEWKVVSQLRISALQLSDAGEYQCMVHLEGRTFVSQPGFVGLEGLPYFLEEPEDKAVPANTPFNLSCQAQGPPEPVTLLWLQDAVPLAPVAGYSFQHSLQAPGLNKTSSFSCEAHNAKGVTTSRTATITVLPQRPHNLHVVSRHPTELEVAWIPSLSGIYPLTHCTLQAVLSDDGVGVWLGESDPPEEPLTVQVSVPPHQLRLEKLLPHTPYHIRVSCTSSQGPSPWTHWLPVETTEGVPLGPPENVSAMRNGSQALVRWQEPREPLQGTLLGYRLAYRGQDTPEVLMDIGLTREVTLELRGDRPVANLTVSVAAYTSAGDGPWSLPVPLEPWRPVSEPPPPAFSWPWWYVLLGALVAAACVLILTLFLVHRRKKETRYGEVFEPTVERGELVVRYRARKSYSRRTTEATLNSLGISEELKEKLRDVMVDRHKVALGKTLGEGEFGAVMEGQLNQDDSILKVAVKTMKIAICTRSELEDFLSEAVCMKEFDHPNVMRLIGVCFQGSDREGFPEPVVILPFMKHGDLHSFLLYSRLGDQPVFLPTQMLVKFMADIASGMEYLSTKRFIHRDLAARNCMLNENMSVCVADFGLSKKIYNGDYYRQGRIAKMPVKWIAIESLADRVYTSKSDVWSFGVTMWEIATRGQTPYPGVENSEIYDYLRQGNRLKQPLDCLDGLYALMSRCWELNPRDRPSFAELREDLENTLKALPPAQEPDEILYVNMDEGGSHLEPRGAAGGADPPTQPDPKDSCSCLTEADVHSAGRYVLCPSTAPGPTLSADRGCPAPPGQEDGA

[1] = Phase 1 clinical study of BA3011: pharmacokinetics; assay type: in vivo, human
Excerpt: • PK of BA3011: plasma concentrations of ADC, total antibody and MMAE, and PK parameters, including Cmax and AUC. • Efficacy (expansion cohorts only): ORR, disease control rate (DCR), time to response (TTR), duration of response (DOR), best objective response (OR), progression-free survival (PFS), overall survival (OS), and percent change from baseline in tumor size. • Immunogenicity of BA3011: the number and percentage of patients who develop detectable anti-drug antibodies (ADAs).
Sample collection timepoints for BA3011 PK, PD, and immunogenicity testing are presented in Table 18 (Phase 1) and Table 19 (Phase 2).
In Phase 1 (NCT03425279), BA3011 was administered once (Q3W) or twice (2Q3W) every 3 weeks via intravenous (IV) infusion.

B1: Mecbotamab vedotin (conjugate, chains of the INN, looked up)
VH: EVQLVQSGAEVKKPGATVKISCKVSGYSFWGATMNWIRQPPGKGLEWIGLIKPSNGGTSYNQKFKGRVTISADKSISTAYLQWSSLKASDTAMYYCAHGHYESYEAMDYWGQGTLVTVSS
VL: DIQMTQSPSSLSASVGDRVTITCKASQDVVSAVAWYQQKPGQAPRLLIYWQDTRHTGVPSRFSGSGSGTEFTLTISSLQPDDFATYYCQEHFSPPLTFGQGTKVEIK
modifications: MC-vc-PAB-MMAE conjugate
Rat Axl
  binding to rat Axl: not mouse or rat Axl; also recorded: lacked binding to the rodent enzyme
[1]
  PK profile: approximately dose proportional
  half-life: approximately 4 days
